{"source": "patent US20210009704A1", "about": "(TUSK THERAPEUTICS, published 2021)", "key": {"[1]": {"biological_target": "T1, recombinant human CD25 extracellular protein sequence (rhCD25) (human, UniProt P01589 22-240)", "T1 construct": "also called human CD25 antigen; target antigen", "T1 sequence": "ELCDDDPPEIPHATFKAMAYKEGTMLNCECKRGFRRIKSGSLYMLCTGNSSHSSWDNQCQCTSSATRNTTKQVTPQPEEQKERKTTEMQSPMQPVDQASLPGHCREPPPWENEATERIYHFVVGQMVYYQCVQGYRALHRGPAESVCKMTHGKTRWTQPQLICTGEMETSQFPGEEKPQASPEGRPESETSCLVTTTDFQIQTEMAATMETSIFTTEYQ", "test": "ForteBio BLI; format not given; lower end of the stated Kd range"}, "[2]": {"biological_target": "T1, recombinant human CD25 extracellular …", "test": "ForteBio BLI; format not given; upper end of the stated Kd range"}, "[3]": {"biological_target": "T2, recombinant human CD25 his tagged (human, UniProt P01589 22-240, limits assumed)", "T2 construct": "Loaded on Ni-NTA sensors at 20.83 nM; also called rhCD25-his; not shown: His tag", "T2 sequence": "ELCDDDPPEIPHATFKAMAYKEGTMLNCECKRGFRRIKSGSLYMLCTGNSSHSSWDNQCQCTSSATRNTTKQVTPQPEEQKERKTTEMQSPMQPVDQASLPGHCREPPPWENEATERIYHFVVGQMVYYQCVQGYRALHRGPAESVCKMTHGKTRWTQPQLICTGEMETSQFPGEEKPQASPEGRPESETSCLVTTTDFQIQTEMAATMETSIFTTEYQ", "test": "ForteBio BLI, avidity format: rhCD25-His on Ni-NTA sensor, IgG in solution, 1:1 fit"}, "[4]": {"biological_target": "T3, human CD25 expressed on cells (human, UniProt P01589 22-272)", "T3 sequence": "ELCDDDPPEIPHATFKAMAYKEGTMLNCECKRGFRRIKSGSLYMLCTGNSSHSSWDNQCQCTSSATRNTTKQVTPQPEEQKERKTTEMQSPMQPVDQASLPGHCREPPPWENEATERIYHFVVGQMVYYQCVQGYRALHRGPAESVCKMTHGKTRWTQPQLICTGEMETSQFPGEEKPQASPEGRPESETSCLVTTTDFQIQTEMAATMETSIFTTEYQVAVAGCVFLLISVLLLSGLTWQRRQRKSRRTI", "test": "flow cytometry on CD3/CD28 bead activated human Pan T cells, gated on CD4+ T cells", "method": "(§1) Binding to CD25 expressing activated human and Cynomolgus monkey PMBC was examined by staining test articles (anti-CD25 primary antibodies) with 20 μg/ml antibodies followed by semi-log dilution series (7-point) for 30 minutes on ice. This was followed by staining with a secondary antibody (rabbit anti-human Fcg F(ab′)2- (Jackson ImmunoResearch)) concentration of 5 μg/ml for 30 minutes on ice. All samples were stained in triplicates. To minimize cross-linking induced cell death mediated by binding of the secondary antibody, cell lines were examined in staining cohorts of 4 test articles at a time. Live lymphocytes were gated using FSC vs SSC parameters by flow cytometry during sample acquisition. Mean fluorescence intensity (MFI) of gated CD4⁺ and CD8⁺ T cell subsets were plotted on an XY chart, graphing MFI against the log of the concentration, and the data fit to a non-linear regression curve from which the EC50 was calculated."}, "[5]": {"biological_target": "T3, human CD25 expressed on cells", "test": "flow cytometry on CD3/CD28 bead activated human Pan T cells, gated on CD8+ T cells", "method": "as §1"}, "[6]": {"biological_target": "T3, human CD25 expressed on cells", "test": "flow cytometry on human in vitro differentiated Treg cells, Alexa Fluor 647 anti-human IgG secondary", "method": "Binding to CD25 expressing in vitro differentiated Tregs was examined by staining test articles (anti-CD25 primary antibodies) with 30 μg/ml antibodies followed by semi-log dilution series (7-point) for 30 minutes on ice. […] All samples were stained in duplicates. Live cells were gated using FSC vs SSC parameters by flow cytometry during sample acquisition. Mean fluorescence intensity (MFI) of stained cells were plotted on an XY chart, graphing MFI against the log of the concentration, and the data fit to a non-linear regression curve from which the EC50 is calculated."}, "[7]": {"biological_target": "T4, human CD25 antigen, R&D Systems cat no. 223-2A/CF (human, UniProt P01589 22-213, limits assumed)", "T4 construct": "Bought protein; also called R&D Systems (~10% dimer)", "T4 sequence": "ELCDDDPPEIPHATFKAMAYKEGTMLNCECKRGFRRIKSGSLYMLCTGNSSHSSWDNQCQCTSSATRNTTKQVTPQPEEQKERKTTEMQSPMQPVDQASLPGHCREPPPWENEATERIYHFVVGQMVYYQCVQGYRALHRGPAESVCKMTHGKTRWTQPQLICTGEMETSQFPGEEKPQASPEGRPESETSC", "test": "SPR Biacore T200, antibody captured by anti-human Fab, CD25 in solution, Two State Reaction fit; column head 'Binding strength'", "method": "(§2) Binding of CD25 antibodies to human CD25 antigen was investigated by surface plasmon resonance using a BIACORE T200 instrument (GE Healthcare).\n(§3) The flow cell was set to 25° C. and the sample compartment to 12° C. The CD25 antibody was captured by injecting a 3 μg/ml solution for 60 sec at a flow rate of 10 μl/min. Association of CD25 antigen was measured by injection of human CD25 solutions for 180 sec at a flow rate of 30 μl/min starting with a concentration of 1000 nM down to 1 nM in 1:10 dilution steps. The dissociation phase was triggered by switching from sample solution injection to running buffer and monitored for up to 600 seconds. The surface was regenerated by washing with two consecutive 1-minute injections of 10mM glycine pH 2.1 (provided by the kit) at a flow rate of 10 μl/min. Bulk refractive index differences were corrected by subtracting the response obtained from an anti-human Fab reference surface; blank injections are also subtracted (=double referencing).\n(§4) For calculation of KD and kinetic parameters Biacore provided fitting models were used to obtain optimal curve fitting results. The 1:1 Langmuir fit was used for P1AA5872 and the Two State Kinetic fitting for CD25 from Sino Biologicals and R&D Systems."}, "[8]": {"biological_target": "T5, inhouse produced monomeric CD25 antigen (P1AA5872) (human, UniProt P01589 22-240, limits assumed)", "T5 construct": "also called Inhouse (0% dimer)", "T5 sequence": "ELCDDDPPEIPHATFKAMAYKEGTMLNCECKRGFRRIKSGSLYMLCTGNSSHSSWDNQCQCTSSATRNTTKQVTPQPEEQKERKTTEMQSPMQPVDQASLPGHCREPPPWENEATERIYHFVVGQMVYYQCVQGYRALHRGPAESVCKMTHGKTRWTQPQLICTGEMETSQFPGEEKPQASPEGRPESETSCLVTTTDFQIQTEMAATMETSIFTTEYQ", "test": "SPR Biacore T200, antibody captured by anti-human Fab, monomeric CD25 in solution, 1:1 Langmuir fit; column head 'Binding strength'", "method": "as §2, §3, §4"}, "[9]": {"biological_target": "T6, human CD25 antigen, Sino Biologicals cat no. 10165-H08H (human, UniProt P01589 22-213)", "T6 construct": "Bought protein; also called Sino biological (~20% dimer)", "T6 sequence": "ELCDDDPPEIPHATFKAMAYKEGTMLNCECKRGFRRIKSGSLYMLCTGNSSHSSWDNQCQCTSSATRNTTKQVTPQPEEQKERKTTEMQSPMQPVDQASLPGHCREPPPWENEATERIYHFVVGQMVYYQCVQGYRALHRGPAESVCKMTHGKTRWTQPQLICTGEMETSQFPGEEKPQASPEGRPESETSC", "test": "SPR Biacore T200, antibody captured by anti-human Fab, CD25 in solution, Two State Reaction fit; column head 'Binding strength'; Sino Biologicals CD25, ~20% dimer; Two State Reaction fit", "method": "as §2, §3, §4"}}}
{"binder": "aCD25-a-674 (antibody, V domains shown, not shown: human IgG1 heavy chain constant region, P01857; human kappa light chain constant region, P01834) VH: QVQLVQSGAEVKKPGASVKVSCKASGYTFTSYYMHWVRQAPGQGLEWMGIINPSGGSTSYAQKFQGRVTMTRDTSTSTVYMELSSLRSEDTAVYYCARGGAEYIPAEYFQHWGQGTLVTVSS VL: EIVMTQSPATLSLSPGERATLSCRASQSVSSYLAWYQQKPGQAPRLLIYDASNRATGIPARFSGSGSGTDFTLTISSLEPEDFAVYYCQQRPFLPTFGGGTKVEIK", "values": [{"measurement": "Kd", "setting": "[1]", "value": "≥ 0.1", "unit": "nM"}, {"measurement": "Kd", "setting": "[2]", "value": "≤ 10", "unit": "nM"}, {"measurement": "Kd", "setting": "[3]", "value": 2.12, "unit": "nM"}, {"measurement": "EC50 (read off the curve)", "setting": "[4]", "value": "~0.9", "unit": "µg/mL"}, {"measurement": "EC50 (read off the curve)", "setting": "[5]", "value": "~1", "unit": "µg/mL"}, {"measurement": "EC50 (read off the curve)", "setting": "[6]", "value": "~2", "unit": "µg/mL"}, {"measurement": "Kd", "setting": "[7]", "value": 48, "unit": "nM"}, {"measurement": "Kd", "setting": "[8]", "value": 517, "unit": "nM"}, {"measurement": "Kd", "setting": "[9]", "value": 40, "unit": "nM"}]}
